Measurements as given in US10441663B2, “Methods for treating cancer” (Bicycle Therapeutics Limited, priority 2016, dated 2019).
*1 amine or outer side, *2 acyl side, *3 side chain or, on linkers, in order; H or OH if unused. Where a SMILES comes first, the peptide text is derived from it. Bridges are numbered along the chain shown (N, C = ends). [ ]: non-standard residue; d: D form. The star is where a group is joined. ξ: configuration not given here. X2 = COc1cc2cc(c1Cl)N(C)C(=O)C[C@H](OC(=O)[C@H](C)N(C)C(=O)CCSC1CC(=O)N(CC3CCC(C(=O)*)CC3)C1=O)[C@@]1(C)O[C@H]1[C@H](C)[C@@H]1C[C@@](O)(NC(=O)O1)[C@H](OC)/C=C/C=C(\C)C2; 1Nal = N[C@@H](Cc1cccc2ccccc12)C(=O)O; TBMB = c1c(C[*:1])cc(C[*:3])cc1C[*:2]; Tle = CC(C)(C)[C@H](N)C(=O)O; ξA = CC(N)C(=O)O; Sar = CNCC(=O)O

Experiments:
EBC-1 xenograft = assay: Efficacy of BT1721 in EBC-1 xenograft model (Example 6); type: in vivo, Mus Musculus; conditions: for Tumor Size: Mean ± SEM
Description: The objective of this study was to evaluate the anti-tumor efficacy of BT1721 in EBC-1 xenograft model in female BALB/c nude mice.
The EBC-1 tumor cells were maintained in vitro as a monolayer culture in RPMI1640 medium supplemented with 10% heat inactivated fetal bovine serum at 37° C. in an atmosphere of 5% CO2 in air. The tumor cells were routinely subcultured twice weekly by trypsin-EDTA treatment. The cells growing in an exponential growth phase were harvested and counted for tumor inoculation.
Each mouse was inoculated subcutaneously at the right flank with EBC-1 tumor cells (10×10^6) in 0.2 ml of PBS for tumor development. The treatments were started on Day 7 after the tumor inoculation when the average tumor size reached approximately 152 mm^3. Each group consisted of 3 tumor-bearing mice. The testing articles were administrated to the mice according to the predetermined regimen as shown in the experimental design (Table 43).
All the procedures related to animal handling, care and the treatment in the study were performed according to the guidelines of the Association for Assessment and Accreditation of Laboratory Animal Care (AAALAC). At the time of routine monitoring, the animals were daily checked for any effects of tumor growth and treatments on normal behavior such as mobility, food and water consumption (by looking only), body weight gain/loss (body weights were measured every day), eye/hair matting and any other abnormal effect as stated in the protocol. Death and observed clinical signs were recorded on the basis of the numbers of animals within each subset.
The major endpoint was to see if the tumor growth could be delayed or mice could be cured. Tumor size was measured three times weekly in two dimensions using a caliper, and the volume was expressed in mm^3 using the formula: V=0.5 a×b^2 where a and b are the long and short diameters of the tumor, respectively. The tumor size was then used for calculations of T/C value. The T/C value (in percent) is an indication of antitumor effectiveness; T and C are the mean volumes of the treated and control groups, respectively, on a given day.
TGI was calculated for each group using the formula: TGI (%)=[1−(Ti−T0)/(Vi−V0)]×100; Ti is the average tumor volume of a treatment group on a given day, T0 is the average tumor volume of the treatment group on the day of treatment start, Vi is the average tumor volume of the vehicle control group on the same day with Ti, and V0 is the average tumor volume of the vehicle group on the day of treatment start.
Summary statistics, including mean and the standard error of the mean (SEM), are provided for the tumor volume of each group at each time point.
Statistical analysis of difference in tumor volume among the groups was conducted on the data obtained at the best therapeutic time point after the final dose.
A one-way ANOVA was performed to compare tumor volume among groups, and when a significant F-statistics (a ratio of treatment variance to the error variance) was obtained, comparisons between groups were carried out with Games-Howell test. All data were analyzed using Prism. P<0.05 was considered to be statistically significant.

HT1080 cell line = assay: In vitro cytotoxicity, ATP endpoint assay after 72 hours incubation; type: cell-based; conditions: ATP endpoint, HT-1080 cells
Description: To evaluate the in vitro cytotoxicity of BT1718 and BT1721 in an HT1080 cell line using an ATP endpoint assay after 72 hours incubation.
Cells were seeded in 96 well plates (75 μl/well, HT1080=7500−15000 cell/well) and incubated overnight at 37° C.+5% CO2.
The day after cell seeding, serial dilutions (1:5) of BT1718 and BT1721 were prepared in DMSO and diluted 1:71 in cell culture media to give 4× final concentrations. Twenty five μl/well was added to the cells (2 μM or 5 μM top final concentration of BT1718 and 2 μM or 5 μM top final concentration of BT1721, <0.6% final DMSO).
Cells were 30-50% confluent upon dosing. Control wells containing 5 μM final concentration of staurosporine (positive control), lysis buffer (1% NP40, 20 mM Tris pH8, 137 mM NaCl, 10% glycerol, 2 mM EDTA, 1 mM Na Orthovanadate, 10 μg/ml leupeptin, 10 μg/ml aprotinin) positive control or media (negative control), were also included. Plates were sealed with gas permeable seals and incubated at 37° C.+5% CO2 for 72 hours. No wash steps were performed.
After a total of 72 hours after dosing, ATPLite reagent (Perkin Elmer) was equilibrated to room temperate and reconstituted in the supplied buffer as per the manufacturer's instructions. One hundred μl 1× detection reagent was added per well. Plates were sealed, protected from light and shaken gently for 20 minutes to ensure complete cell lysis before luminescence was read using a BMG Pherastar FS plate reader. […] Data was analysed using GraphPad Prism. Non-linear regression fit was used to calculate a relative IC50 for each toxic agent: Y=Bottom+(Top−Bottom)/(1+10^((Log Ic50−X)*HillSlope)) where the IC50 is defined as 50% of the total cell kill achieved at the top concentration of toxin.

COc1cc2cc(c1Cl)N(C)C(=O)C[C@H](OC(=O)[C@H](C)N(C)C(=O)CCSC1CC(=O)N(CC3CCC(C(=O)NCCCC[C@H](NC(C)=O)C(=O)NCC(=O)N(C)CC(=O)N(C)CC(=O)N(C)CC(=O)N(C)CC(=O)N(C)CC(=O)N(C)CC(=O)N(C)CC(=O)N(C)CC(=O)N(C)CC(=O)N(C)CC(=O)NC(C)C(=O)N[C@H]4CSCc5cc6cc(c5)CSC[C@H](NC(=O)[C@@H](C)NC(=O)[C@H](Cc5cccc7ccccc57)NC(=O)[C@H](CCC(=O)O)NC(=O)[C@H](CC(N)=O)NC(=O)[C@@H](C)NC4=O)C(=O)N[C@@H](CCC(=O)O)C(=O)N[C@@H](CC(=O)O)C(=O)N[C@@H](Cc4ccccc4)C(=O)N[C@@H](Cc4ccc(O)cc4)C(=O)N[C@@H](CC(=O)O)C(=O)N[C@@H](C(C)(C)C)C(=O)N[C@H](C(N)=O)CSC6)CC3)C1=O)[C@@]1(C)O[C@H]1[C@H](C)[C@@H]1C[C@@](O)(NC(=O)O1)[C@H](OC)/C=C/C=C(\C)C2 (stereo partly shown) [BT1721] (Ac-K(X2)G[Sar][Sar][Sar][Sar][Sar][Sar][Sar][Sar][Sar][Sar][ξA]C[dA]NE[1Nal][dA]CEDFYD[Tle]C-NH2; linker 14-20-27 via TBMB) was tested, and the “effect on tumor growth” value (EBC-1 xenograft; 1 mg/kg, 3 mg/kg and 10 mg/kg, day 14) was “didn't show any inhibitory effect on tumor growth”, the “tumor volume trace over time” value (EBC-1 xenograft; 1 mg/kg, tiw, day 0) was 164 ± 31 mm^3 and the “tumor volume trace over time” value (EBC-1 xenograft; 1 mg/kg, tiw, day 2) was 291 ± 57 mm^3. The “tumor volume trace over time” value (EBC-1 xenograft; 1 mg/kg, tiw, day 4) was 367 ± 68 mm^3, the “tumor volume trace over time” value (EBC-1 xenograft; 1 mg/kg, tiw, day 7) was 640 ± 39 mm^3 and the “tumor volume trace over time” value (EBC-1 xenograft; 1 mg/kg, tiw, day 9) was 784 ± 40 mm^3. For the same molecule, the “tumor volume trace over time” value (EBC-1 xenograft; 1 mg/kg, tiw, day 11) was 874 ± 50 mm^3, the T/C (EBC-1 xenograft; 1 mg/kg, tiw, day 14) was 22% and the TGI (EBC-1 xenograft; 1 mg/kg, tiw, day 14) was 82%. For the same molecule, the “tumor volume trace over time” value (EBC-1 xenograft; 1 mg/kg, tiw, day 14) was 981 ± 47 mm^3, the “Tumor Size” value (EBC-1 xenograft; 1 mg/kg, tiw, day 14) was 981 ± 47 mm^3 and the “tumor volume trace over time” value (EBC-1 xenograft; 3 mg/kg, tiw, day 0) was 142 ± 18 mm^3. For the same molecule, the “tumor volume trace over time” value (EBC-1 xenograft; 3 mg/kg, tiw, day 2) was 207 ± 60 mm^3, the “tumor volume trace over time” value (EBC-1 xenograft; 3 mg/kg, tiw, day 4) was 310 ± 61 mm^3 and the “tumor volume trace over time” value (EBC-1 xenograft; 3 mg/kg, tiw, day 7) was 531 ± 116 mm^3. For the same molecule, the “tumor volume trace over time” value (EBC-1 xenograft; 3 mg/kg, tiw, day 9) was 708 ± 132 mm^3, the “tumor volume trace over time” value (EBC-1 xenograft; 3 mg/kg, tiw, day 11) was 761 ± 147 mm^3 and the T/C (EBC-1 xenograft; 3 mg/kg, tiw, day 14) was 26%. The TGI (EBC-1 xenograft; 3 mg/kg, tiw, day 14) was 77%, the “tumor volume trace over time” value (EBC-1 xenograft; 3 mg/kg, tiw, day 14) was 920 ± 210 mm^3 and the “Tumor Size” value (EBC-1 xenograft; 3 mg/kg, tiw, day 14) was 920 ± 210 mm^3. For the same molecule, the “effect on tumor growth” value (EBC-1 xenograft; 10 mg/kg tiw) was “did not show any inhibitory effect on tumor growth”, the “tumor volume trace over time” value (EBC-1 xenograft; 10 mg/kg, tiw, day 0) was 160 ± 25 mm^3 and the “tumor volume trace over time” value (EBC-1 xenograft; 10 mg/kg, tiw, day 2) was 249 ± 82 mm^3. The “tumor volume trace over time” value (EBC-1 xenograft; 10 mg/kg, tiw, day 4) was 407 ± 85 mm^3, the “tumor volume trace over time” value (EBC-1 xenograft; 10 mg/kg, tiw, day 7) was 632 ± 149 mm^3 and the “tumor volume trace over time” value (EBC-1 xenograft; 10 mg/kg, tiw, day 9) was 735 ± 201 mm^3. For the same molecule, the “tumor volume trace over time” value (EBC-1 xenograft; 10 mg/kg, tiw, day 11) was 858 ± 72 mm^3, the T/C (EBC-1 xenograft; 10 mg/kg, tiw, day 14) was 6% and the TGI (EBC-1 xenograft; 10 mg/kg, tiw, day 14) was 96%. The “tumor volume trace over time” value (EBC-1 xenograft; 10 mg/kg, tiw, day 14) was 1142 ± 147 mm^3, the “Tumor Size” value (EBC-1 xenograft; 10 mg/kg, tiw, day 14) was 1142 ± 147 mm^3 and the “Body Weight” value (EBC-1 xenograft; 1 mpk, tiw, day 0) was 22.2 ± 0.7 g. For the same molecule, the “Body Weight (% Change)” value (EBC-1 xenograft; 1 mpk, tiw, day 0) was 0.0%, the “Body Weight” value (EBC-1 xenograft; 1 mpk, tiw, day 2) was 22.0 ± 0.5 g and the “Body Weight (% Change)” value (EBC-1 xenograft; 1 mpk, tiw, day 2) was −1.1 ± 0.7%. For the same molecule, the “Body Weight” value (EBC-1 xenograft; 1 mpk, tiw, day 4) was 22.4 ± 0.8 g, the “Body Weight (% Change)” value (EBC-1 xenograft; 1 mpk, tiw, day 4) was 0.8 ± 2.3% and the “Body Weight” value (EBC-1 xenograft; 1 mpk, tiw, day 7) was 22.5 ± 0.9 g. For the same molecule, the “Body Weight (% Change)” value (EBC-1 xenograft; 1 mpk, tiw, day 7) was 1.3 ± 1.4%, the “Body Weight” value (EBC-1 xenograft; 1 mpk, tiw, day 9) was 23.2 ± 0.8 g and the “Body Weight (% Change)” value (EBC-1 xenograft; 1 mpk, tiw, day 9) was 4.4 ± 0.8%. For the same molecule, the “Body Weight” value (EBC-1 xenograft; 1 mpk, tiw, day 11) was 22.9 ± 1.0 g, the “Body Weight (% Change)” value (EBC-1 xenograft; 1 mpk, tiw, day 11) was 3.1 ± 1.7% and the “Body Weight” value (EBC-1 xenograft; 1 mpk, tiw, day 14) was 23.3 ± 1.1 g. The “Body Weight (% Change)” value (EBC-1 xenograft; 1 mpk, tiw, day 14) was 4.6 ± 2.0%, the “Body Weight” value (EBC-1 xenograft; 3 mpk tiw, day 0) was 22.9 ± 0.4 g and the “Body Weight (% Change)” value (EBC-1 xenograft; 3 mpk tiw, day 0) was 0.0%. The “Body Weight” value (EBC-1 xenograft; 3 mpk tiw, day 2) was 22.3 ± 0.6 g, the “Body Weight (% Change)” value (EBC-1 xenograft; 3 mpk tiw, day 2) was −2.8 ± 1.3% and the “Body Weight” value (EBC-1 xenograft; 3 mpk tiw, day 4) was 22.3 ± 0.8 g. For the same molecule, the “Body Weight (% Change)” value (EBC-1 xenograft; 3 mpk tiw, day 4) was −2.8 ± 1.9%, the “Body Weight” value (EBC-1 xenograft; 3 mpk tiw, day 7) was 23.1 ± 0.7 g and the “Body Weight (% Change)” value (EBC-1 xenograft; 3 mpk tiw, day 7) was 0.8 ± 1.8%. The “Body Weight” value (EBC-1 xenograft; 3 mpk tiw, day 9) was 23.9 ± 1.0 g, the “Body Weight (% Change)” value (EBC-1 xenograft; 3 mpk tiw, day 9) was 4.0 ± 2.8% and the “Body Weight” value (EBC-1 xenograft; 3 mpk tiw, day 11) was 24.0 ± 1.0 g. For the same molecule, the “Body Weight (% Change)” value (EBC-1 xenograft; 3 mpk tiw, day 11) was 4.7 ± 2.7%, the “Body Weight” value (EBC-1 xenograft; 3 mpk tiw, day 14) was 24.6 ± 1.0 g and the “Body Weight (% Change)” value (EBC-1 xenograft; 3 mpk tiw, day 14) was 7.2 ± 2.9%. The “Body Weight” value (EBC-1 xenograft; 10 mpk tiw, day 0) was 23.2 ± 0.5 g, the “Body Weight (% Change)” value (EBC-1 xenograft; 10 mpk tiw, day 0) was 0.0% and the “Body Weight” value (EBC-1 xenograft; 10 mpk tiw, day 2) was 23.2 ± 0.3 g. For the same molecule, the “Body Weight (% Change)” value (EBC-1 xenograft; 10 mpk tiw, day 2) was 0.0 ± 1.5%, the “Body Weight” value (EBC-1 xenograft; 10 mpk tiw, day 4) was 23.2 ± 0.4 g and the “Body Weight (% Change)” value (EBC-1 xenograft; 10 mpk tiw, day 4) was −0.3 ± 0.5%. The “Body Weight” value (EBC-1 xenograft; 10 mpk tiw, day 7) was 23.9 ± 0.5 g, the “Body Weight (% Change)” value (EBC-1 xenograft; 10 mpk tiw, day 7) was 2.8 ± 0.6% and the “Body Weight” value (EBC-1 xenograft; 10 mpk tiw, day 9) was 24.4 ± 0.4 g. For the same molecule, the “Body Weight (% Change)” value (EBC-1 xenograft; 10 mpk tiw, day 9) was 5.1 ± 0.6%, the “Body Weight” value (EBC-1 xenograft; 10 mpk tiw, day 11) was 24.4 ± 0.6 g and the “Body Weight (% Change)” value (EBC-1 xenograft; 10 mpk tiw, day 11) was 5.0 ± 0.3%. The “Body Weight” value (EBC-1 xenograft; 10 mpk tiw, day 14) was 25.3 ± 0.5 g, the “Body Weight (% Change)” value (EBC-1 xenograft; 10 mpk tiw, day 14) was 8.8 ± 0.7% and the body weight effect (EBC-1 xenograft; mouse, in vivo) was “maintained their bodyweight well”. The IC50 (HT1080 cell line) was 8.9 nM.
